Target: T1, GST-Nup358-MC2 (2012–2771 aa) (human, UniProt P49792 2012-2771)
T1 construct: also called GST-tagged Nup358-MC2; source: E. coli BL21 CodonPlus RIL (DE3), purified (Glutathione Agarose Beads)
Experiment: co-IP; in vitro: 2 µM MBP protein incubated with 1.5 µM GST-Nup358-MC2 in 25 mM Tris-HCl pH 7.4, 150 mM NaCl, 5% glycerol, 0.01% Tween20, 2 h, 4 °C; MBP proteins immunoprecipitated with anti-MBP antibody on Protein G Dynabeads; western blot for Nup358-MC2
Settings: both partners purified

T1 sequence (P49792 2012-2771): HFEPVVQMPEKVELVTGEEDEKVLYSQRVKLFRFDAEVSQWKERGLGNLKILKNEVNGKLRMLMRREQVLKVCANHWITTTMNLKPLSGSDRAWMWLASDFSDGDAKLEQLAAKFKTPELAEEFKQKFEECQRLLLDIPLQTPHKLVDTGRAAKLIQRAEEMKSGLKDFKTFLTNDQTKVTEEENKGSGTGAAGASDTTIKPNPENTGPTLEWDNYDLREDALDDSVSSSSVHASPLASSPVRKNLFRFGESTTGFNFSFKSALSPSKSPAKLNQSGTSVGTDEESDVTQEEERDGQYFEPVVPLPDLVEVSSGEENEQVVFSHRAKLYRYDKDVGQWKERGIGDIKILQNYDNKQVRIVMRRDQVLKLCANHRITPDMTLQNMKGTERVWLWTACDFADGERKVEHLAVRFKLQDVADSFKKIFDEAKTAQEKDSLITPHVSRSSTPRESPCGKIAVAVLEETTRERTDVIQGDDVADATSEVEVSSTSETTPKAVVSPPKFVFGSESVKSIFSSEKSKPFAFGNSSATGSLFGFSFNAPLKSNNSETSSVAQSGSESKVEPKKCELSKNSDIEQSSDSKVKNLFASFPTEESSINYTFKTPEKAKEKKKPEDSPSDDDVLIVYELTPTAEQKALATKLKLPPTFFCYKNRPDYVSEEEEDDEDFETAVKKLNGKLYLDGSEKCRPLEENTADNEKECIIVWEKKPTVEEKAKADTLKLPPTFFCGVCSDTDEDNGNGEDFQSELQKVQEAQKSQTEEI

binding result: binds
B1: MBP-PTPIP51 (36–470 aa) (domain or fragment, UniProt Q96TC7 36-470, looked up)
chain: KRTQRHGRSQSLPNSLDYTQTSDPGRHVMLLRAVPGGAGDASVLPSLPREGQEKVLDRLDFVLTSLVALRREVEELRSSLRGLAGEIVGEVRCHMEENQRVARRRRFPFVRERSDSTGSSSVYFTASSGATFTDAESEGGYTTANAESDNERDSDKESEDGEDEVSCETVKMGRKDSLDLEEEAASGASSALEAGGSSGLEDVLPLLQQADELHRGDEQGKREGFQLLLNNKLVYGSRQDFLWRLARAYSDMCELTEEVSEKKSYALDGKEEAEAALEKGDESADCHLWYAVLCGQLAEHESIQRRIQSGFSFKEHVDKAIALQPENPMAHFLLGRWCYQVSHLSWLEKKTATALLESPLSATVEDALQSFLKAEELQPGFSKAGRVYISKCYRELGKNSEARWWMKLALELPDVTKEDLAIQKDLEELEVILRD
notes: PTPIP51 (RMDN3), residues 36-470, cloned into pMAL-c2; source: E. coli BL21 Star (DE3), purified (Ni-NTA, Amylose resin); not shown: MBP, N-terminal, kept
